Data: patent US7645871B2, “Tumor inhibition by modulating sprouty expression of activity” (Michigan State University, priority 2005, dated 2010)

How the values were obtained:
[1] = tested on: HRas-transformed cells (PH3MT); assay: UV-induced apoptosis assay (AnnexinV-FITC, flow cytometry); type: cell-based, human; conditions: Ras-transformed cells treated with AG1478
Description: Apoptosis was detected by staining the cells with AnnexinV-FITC (BD Biosciences, San Jose, Calif.) according to manufacturer's recommendations. Briefly, cells were plated at a density of 2×10^5 cells/60 mm-dish. 16 hours after plating, the cells were irradiated with UV at a dose of 30-60 J/m^2 and incubated at 37° C. under normal culture conditions for varying time periods. Subsequently, the cells were collected, washed twice with AnnexinV binding buffer and incubated with AnnexinV-FITC at room temperature for 15 mins. The cells were also stained with propidium iodide (PI) to distinguish between live and dead cells. AnnexinV-FITC positive cells were determined by flow cytometry under standard conditions. Cells that stained positively for AnnexinV were considered apoptotic, while cells that were positive for both annexinV and PI were not considered apoptotic. All experiments were repeated at least three times. Ras protects NIH3T3 fibroblasts from apoptosis induced by DNA-damage (Franke et al. (2003) Oncogene 22:8983-98). Experiments were conducted to determine whether this effect was produced in an H-Ras-transformed cell strain (PH3MT), which has a higher expression of Spry2 compared to its parental cell strain (MSU-1.1) (FIG. 10A). In these experiments, both MSU-1.1 and PH3MT cells were plated at a density of 2×10^5 cells per dish and allowed to grow overnight. […]

PH3MT cells [2] = assay: AG1478 inhibitor study, cell growth in 0.1% serum; type: cell-based, human
Description: For AG1478 inhibitor studies, cells were plated at a density of 5,000 cells per 60 mm-diameter dish in medium containing 0.1% serum, and were allowed to grow in the presence or absence of AG1478 at a concentration of 6 μM. Cell growth was monitored by measuring the number of cells every two days. Each experimental repetition included at least two replicates for each cell strain analyzed.
The activation of Ras oncogenes enables cellular growth in the absence of exogenous growth factors (Medema et al. (1993) Crit. Rev. Oncog. 4; Shields et al. (2000) Trends Cell. Biol. 10: 147-154). To determine if the activity of EGFR is necessary for the growth factor independence of H-Ras-transformed cells, measurements were made to determine the ability of PH3MT cells to grow in the presence of the AG1478 inhibitor, a specific inhibitor of EGFR tyrosine kinase activity (Levitzki et al. (1995) Science 267:1782-1788).

PH3MT cells [3] = assay: Tumorigenicity assay in athymic mice; type: in vivo; conditions: one million cells per site s.c., at least 6 months
Description: Cells were assayed for their ability to form tumors in athymic mice as described in Lou et al. (2005) Cancer Res. 65:1007-1017. The mice were examined weekly for tumor growth, and the tumors were removed when they reached 1 cm in diameter. In the absence of tumor formation six months after the injection, the mice were sacrificed.
When these same cell strains were compared for their ability to form tumors in athymic mice (Table 1), the control cell strains (PH3MT-VC and PH3MT-SC) formed 0.5 cm^3 tumors in 21 days (12/12 tumors formed per cell strain).

Rac1 = Rac1 activation assay (PAK-CRIB pull-down); type: cell-based, human; conditions: PH3MT-SC (endogenous Spry2) vs PH3MT-2A3
Description: Pull-down assays were performed using whole cell lysates (2 mg). The lysates were pulled down with PAK-Cdc42/Rac1 interacting region (CRIB)-conjugated beads from Cytoskeleton (Denver, Colo.) using methods provided by the manufacturer. […] These experiments were repeated 3 times in H-Ras-transformed cells and twice in immortalized fibroblasts.
To determine whether Spry2 plays a role in the activation of Rac1, a Rac1 activation assay was carried out to determine the level of activated Rac1 in control HRas-transformed cells (PH3MT-SC) and in HRas-transformed cells with down regulated Spry2 (PH3MT-2A3).

PH3MT cells [4] = assay: Stress fiber staining (phalloidin); type: cell-based, human; conditions: PH3MT-2A3 vs PH3MT-SC
Description: Stress fibers were detected with Alexa-fluor 488 conjugated phalloidin stain from Invitrogen (Carlsbad, Calif.), which was used according to the manufacturer's instructions. Briefly, cells at log phase were fixed in 10% normal buffered formalin solution for 10 mins. The fixed cells were washed twice in phosphate buffered saline (PBS), and then treated with 0.1 Triton X-100 in PBS for 3-5 mins. at room temperature. Subsequently, the cells were incubated with blocking solution (1% BSA in PBS) for 20 mins. at room temperature. Finally, the cells were incubated with phalloidin stain for 30 mins. and analyzed by fluorescent microscopy.
One function of Rac1 is to inhibit stress fiber formation (Burridge et al. (2004) Cell 116(2): 167-179). […] This is consistent with the lower level of Rac1 activation in these cells (FIG. 12B). Accordingly, one assay that can be used to analyze the effects of a compound that affects Spry2 expression or activity is to assay stress fiber formation in the presence and absence or a compound in a cell that can express Rac1.

HRas/c-Cbl = assay: Co-immunoprecipitation of c-Cbl with HRas; type: cell-based, human; conditions: PH3MT-2A3 vs control cells, anti-HRas immunoprecipitation
Description: Generally, in experiments employing immunoprecipitation, whole cell lysates (250 μg) were precleared with an appropriate IgG antibody for 30 mins., then incubated with an antibody specific to HRas for 2 hrs., followed by incubation with protein-G for 1 hr. to overnight at 4° C. When an Hras-agarose conjugate was used (Ras-cCbl/CIN85), the lysates were incubated with the agarose conjugate for 3 hrs. to overnight. The immunoprecipitated fraction was washed several times with lysis buffer and assayed by Western blotting. Experiments were generally conducted in replicate, e.g., experiments were repeated 3 to 4 times for those examining Ras-Spry2 and Ras-c-Cbl interactions, and two times for those examining the Ras-CIN85 interaction.

ERK = assay: EGF-induced activation of ERK (pERK Western blot); type: cell-based, human; conditions: serum starved, EGF 100 ng/ml; vs scrambled RNAi strain PH3MT-SC
Description: Whole cell lysates were prepared as described in Lou et al. (2005) Cancer Res. 65:1007-1017. The protein content was quantified with Coomassie protein reagent from Pierce (Rockford, Ill.). Whole cell lysate (50 μg) was separated by SDS-PAGE. The protein was transferred to polyvinylidene fluoride membrane (Millipore, Billerica, Mass.), and immunoblotting was carried out using standard techniques. The signal was detected with the SuperSignal® reagent (Pierce). Antibodies against EGFR, ERK, pERK, c-Cbl, and H-Ras were purchased from Santa Cruz Biotechnology, Inc. (Santa Cruz, Calif.); Sprouty2 from Calbiochem (San Diego, Calif.); Pan-Ras from Cytoskeleton, Inc. (Denver, Colo.) and Ku80 from Serotec (Raleigh, N.C.). The Ku80 protein expression was used as a loading control.
To determine if the expression of Sprouty2 in PH3MT cells was associated with an increase in the activation of the RAS/MAPK cascade, EGF-induced activation of ERK was examined by Western blotting with a phosphorylation-specific antibody.

p53 = p53 level, Western blot; type: cell-based, human; conditions: PH3MT-2A3 vs PH3MT-SC
Description: (§1) Whole cell lysates were prepared as described in Lou et al. ((2005) Cancer Res. 65:1007-1017). Protein concentration was quantified with Coomasie protein reagent from Pierce (Rockford, Ill.). Whole cell lysates (50 μg) were separated by SDS-PAGE. The electrophoresed proteins were transferred to a polyvinylidene fluoride membrane (Millipore, Billerca, Mass.), and immunoblotted using standard techniques. Antibodies against pp 85, p85, c-Cbl, Mdm2, p53 and H-Ras were purchased form Santa Cruz (Santa Cruz, Calif.); Spry2 from Calbiochem (San Diego, Calif.); pAkt and Akt from Cell Signaling (Danver, Mass.) and Ku80 from Serotec (Raleigh, N.C.). Ku80 protein was used as a loading control. Label signals were detected with the SuperSignal reagent (Pierce, Rockford, Ill.).
(§2) The MDM2/p53 pathway plays a critical role in UV-induced apoptosis (Lakin et al. (1999) Oncogene 18(53):7644-7655). Akt phosphorylates MDM2 on serine residue 166, resulting in the stabilization of MDM2 (Ogawara et al. (2002) J. Biol. Chem., 277(24):21843-21850). This enhances the ubiquitination of p53 by MDM2, which is followed by degradation of the p53. […] To test this proposal, the amount of MDM2 phosphorylated at Ser166 was determined in a cell strain with down regulated Spry2 (PH3MT-2A3) and in a control cell strain (PH3MT-SC). […]

MDM2 = MDM2 level and Ser166 phosphorylation, Western blot; type: cell-based, human; conditions: PH3MT-2A3 vs PH3MT-SC
Description: as §1, §2

## COc1cc2ncnc(Nc3cccc(Cl)c3)c2cc1OC [AG1478]
[1]
  number of cells undergoing apoptosis in response to UV radiation: increased the number of Ras-transformed cells undergoing apoptosis
PH3MT cells [2]; PH3MT cells, 0.1% serum, AG1478 6 μM
  ability of cells to grow in medium with reduced serum: decrease in the ability of H-Ras-transformed cells to grow in medium with reduced serum
PH3MT cells [2]; PH3MT vs MSU-1.1, AG1478 6 μM, p<0.001
  decrease in growth compared with effect on MSU-1.1 cells: significantly greater than the corresponding effect of the same inhibitor on the MSU-1.1 cells

B1: Spry2-shRNA-5: Sprouty2-specific shRNA construct targeting position 492 of the Spry2 coding region; PH3MT-5A3 cell strain was derived with it (nucleic acid)
chain: GATCCCCGCCACTGAGCAAGGAAGATTTCAAGAGAATCTTCCTTGCTCAGTGGCTTTTTGGAAA
PH3MT cells [3]; cell strain PH3MT-5A3 (derived with Spry2-shRNA-5)
  Tumor incidence (ratio of tumors formed to sites injected): 0/12

B2: Spry2-shRNA-2: Sprouty2-specific shRNA construct targeting position 399 of the Spry2 coding region; PH3MT-2A3 and PH3MT-2B9 cell strains were derived with it (nucleic acid)
chain: GATCCCCGAGACTGCTAGGATCATCCTTCAAGAGAGGAGTGATCCTAGCAGCTCTTTTTGGAAA
Rac1
  level of active Rac1: significantly higher level of active Rac1, compared to cell strain with down-regulated Spry2 expression
PH3MT cells [4]
  stress fiber formation: more pronounced stress fibers
HRas/c-Cbl
  binding of endogenous c-Cbl to HRas: abolished
ERK
  EGF-induced ERK activation: decreased levels of ERK activation
PH3MT cells [3]; cell strain PH3MT-2A3 (derived with Spry2-shRNA-2)
  Tumor incidence (ratio of tumors formed to sites injected): 0/12
PH3MT cells [3]; cell strain PH3MT-2B9 (derived with Spry2-shRNA-2)
  Tumor incidence (ratio of tumors formed to sites injected): 0/12
p53
  level of p53 following UV treatment: higher
MDM2
  level of MDM2 following UV treatment: decrease in the level of MDM2 following UV treatment
